Laboratory results taken from publication PMC9718832, “An NKX-COUP-TFII morphogenetic code directs mucosal endothelial addressin expression” (Nature Communications, 2022).

Columns and labels:
NKX2-5;COUP-TFII = NKX2-5;COUP-TFII (mouse;mouse, UniProt P42582;P43135 1-318;1-414, |); assay: EMSA; COUP-TFII tag not stated; EMSA: 20 mM Tris pH 8.0, 10 mM KCl, 1 mM DTT, 20% glycerol, 12.5 ng poly dI/C, 6.25 pmol random ss oligo, BSA, 1-2 pmol probe, 4 C; conditions: protein: recombinant;recombinant, tags: His, T7 (pET21A);His, copies: 1;1, blunt
Sequence of NKX2-5;COUP-TFII (P42582 whole entry, one chain of several): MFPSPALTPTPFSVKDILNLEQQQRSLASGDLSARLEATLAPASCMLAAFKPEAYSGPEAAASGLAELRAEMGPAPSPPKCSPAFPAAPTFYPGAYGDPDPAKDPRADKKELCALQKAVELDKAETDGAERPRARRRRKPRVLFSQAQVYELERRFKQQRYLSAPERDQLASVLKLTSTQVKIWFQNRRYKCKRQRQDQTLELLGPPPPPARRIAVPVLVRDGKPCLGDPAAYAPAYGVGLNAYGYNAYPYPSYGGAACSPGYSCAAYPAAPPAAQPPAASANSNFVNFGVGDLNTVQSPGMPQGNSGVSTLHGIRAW

GST-tagged COUP-TFII = target: T1, GST-tagged COUP-TFII (mouse, UniProt P43135 1-414); assay: native gel or EMSA; NKX2-3 and COUP-TFII-GST co-incubated with labelled St6gal1 NCCE probe; complex seen on DNA; conditions: both partners purified
T1 construct: COUP transcription factor 2 (COUP-TFII, Nr2f2); Nr2f2 cDNA cloned into pGEX2TK; also called COUP-TFII-GST; source: E. coli BL21, purified
T1 sequence (looked up): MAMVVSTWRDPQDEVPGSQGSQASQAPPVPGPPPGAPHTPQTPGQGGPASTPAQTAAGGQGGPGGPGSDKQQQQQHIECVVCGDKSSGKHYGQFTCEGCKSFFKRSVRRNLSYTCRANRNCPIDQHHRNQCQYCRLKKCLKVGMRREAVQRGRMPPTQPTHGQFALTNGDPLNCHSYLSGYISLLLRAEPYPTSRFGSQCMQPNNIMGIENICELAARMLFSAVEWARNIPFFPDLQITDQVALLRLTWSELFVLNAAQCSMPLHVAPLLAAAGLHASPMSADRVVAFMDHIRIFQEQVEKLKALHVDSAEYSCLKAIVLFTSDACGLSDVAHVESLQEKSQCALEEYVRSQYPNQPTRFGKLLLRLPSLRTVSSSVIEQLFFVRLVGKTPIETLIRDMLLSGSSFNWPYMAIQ

[1] = target: T2, COUP-TFII (recombinant, His- and T7-tagged) (mouse, UniProt P43135 1-414); assay: native gel or EMSA; recombinant proteins co-incubated with labelled Madcam1 CE probes (native CE, CE_ΔC_A, CE_ΔN_ΔC_A); 4 °C, 20% glycerol, 20 mM Tris pH 8.0, 10 mM KCl, 1 mM DTT, poly dI/C, BSA; 6% gel; supershift with anti-NKX2-3; complex seen on DNA; conditions: both partners purified
T2 construct: COUP transcription factor 2 (COUP-TFII, Nr2f2), mouse; cDNA PCR-amplified from mouse cDNA as BamHI-EcoRI fragment and cloned into pET21-A; also called Nr2f2; NR2F2; source: E. coli BL21, purified
T2 sequence (looked up): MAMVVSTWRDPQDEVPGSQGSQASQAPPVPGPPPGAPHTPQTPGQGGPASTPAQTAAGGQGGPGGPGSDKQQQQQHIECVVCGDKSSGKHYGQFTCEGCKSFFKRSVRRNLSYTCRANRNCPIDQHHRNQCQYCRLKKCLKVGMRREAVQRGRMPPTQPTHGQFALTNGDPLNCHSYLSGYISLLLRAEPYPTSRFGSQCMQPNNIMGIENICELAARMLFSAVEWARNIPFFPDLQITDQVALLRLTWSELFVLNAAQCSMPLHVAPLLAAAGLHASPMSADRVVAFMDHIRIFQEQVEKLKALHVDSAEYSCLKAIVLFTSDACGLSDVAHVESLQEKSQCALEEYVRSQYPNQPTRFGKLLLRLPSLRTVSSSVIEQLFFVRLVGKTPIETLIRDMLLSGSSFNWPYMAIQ

NKX2-3;COUP-TFII-GST = NKX2-3;COUP-TFII-GST (mouse;mouse, UniProt P97334;P43135 1-362;1-414, |); assay: EMSA; EMSA: 20 mM Tris pH 8.0, 10 mM KCl, 1 mM DTT, 20% glycerol, 12.5 ng poly dI/C, 6.25 pmol random ss oligo, BSA, 1-2 pmol probe, 4 C; conditions: protein: recombinant;recombinant; tags: His, T7 (pET21A);GST (pGEX2TK); copies: 1;1; label: labeled; blunt
COUP-TFII-GST = target: T3, COUP-TFII-GST (mouse, UniProt P43135 1-414); assay: EMSA; inhibited by cold WT probe; EMSA: 20 mM Tris pH 8.0, 10 mM KCl, 1 mM DTT, 20% glycerol, 12.5 ng poly dI/C, 6.25 pmol random ss oligo, BSA, 1-2 pmol probe, 4 C; conditions: protein: recombinant; tags: GST (pGEX2TK); chain copies: 2; label: labeled; blunt
T3 sequence: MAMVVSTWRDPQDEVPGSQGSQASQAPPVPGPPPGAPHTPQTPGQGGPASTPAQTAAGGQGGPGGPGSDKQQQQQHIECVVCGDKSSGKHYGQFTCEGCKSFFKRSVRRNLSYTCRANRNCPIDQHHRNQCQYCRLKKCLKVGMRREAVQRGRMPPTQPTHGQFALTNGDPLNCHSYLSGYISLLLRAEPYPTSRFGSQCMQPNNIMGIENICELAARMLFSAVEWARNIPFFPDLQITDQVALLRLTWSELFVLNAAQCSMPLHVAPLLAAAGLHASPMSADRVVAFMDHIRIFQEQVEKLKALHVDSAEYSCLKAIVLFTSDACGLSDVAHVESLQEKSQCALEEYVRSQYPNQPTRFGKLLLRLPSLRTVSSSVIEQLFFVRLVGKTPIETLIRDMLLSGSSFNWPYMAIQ

NKX2-3 [2] = target: T4, NKX2-3 (mouse, UniProt P97334 1-362); assay: as above; conditions: protein: recombinant; tags: His, T7 (pET21A); label: labeled; blunt
NKX2-3;COUP-TFII [3] = target: T5, NKX2-3;COUP-TFII (mouse;mouse, UniProt P97334;P43135 1-362;1-414, |); assay: EMSA; EMSA: 20 mM Tris pH 8.0, 10 mM KCl, 1 mM DTT, 20% glycerol, 12.5 ng poly dI/C, 6.25 pmol random ss oligo, BSA, 1-2 pmol probe, 4 C; conditions: protein: recombinant;recombinant; tags: His, T7 (pET21A);His, T7 (pET21A); copies: 1;1; blunt
COUP-TFII [4] = target: T6, COUP-TFII (mouse, UniProt P43135 1-414); assay: EMSA; supershift; EMSA: 20 mM Tris pH 8.0, 10 mM KCl, 1 mM DTT, 20% glycerol, 12.5 ng poly dI/C, 6.25 pmol random ss oligo, BSA, 1-2 pmol probe, 4 C; conditions: protein: recombinant; tags: His, T7 (pET21A); chain copies: 2; blunt
T6 sequence: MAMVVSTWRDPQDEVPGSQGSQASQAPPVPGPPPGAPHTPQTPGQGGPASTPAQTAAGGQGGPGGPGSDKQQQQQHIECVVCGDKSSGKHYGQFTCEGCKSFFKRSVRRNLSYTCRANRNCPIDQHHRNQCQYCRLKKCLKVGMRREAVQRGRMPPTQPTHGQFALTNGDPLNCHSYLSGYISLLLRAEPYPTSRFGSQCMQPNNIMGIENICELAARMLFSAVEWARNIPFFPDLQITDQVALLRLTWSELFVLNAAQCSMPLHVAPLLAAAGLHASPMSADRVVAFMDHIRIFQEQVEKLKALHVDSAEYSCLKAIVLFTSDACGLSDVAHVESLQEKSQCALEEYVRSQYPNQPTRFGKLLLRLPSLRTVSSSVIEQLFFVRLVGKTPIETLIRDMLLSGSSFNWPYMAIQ

HEY1 [5] = target: T7, HEY1 (mouse, UniProt Q9WV93 1-299); assay: EMSA; supershift with anti-HEY1 (HRT1); EMSA: 20 mM Tris pH 8.0, 10 mM KCl, 1 mM DTT, 20% glycerol, 12.5 ng poly dI/C, 6.25 pmol random ss oligo, BSA, 1-2 pmol probe, 4 C; conditions: protein: recombinant; tags: His, T7 (pET21A); chain copies: 2; blunt
T7 sequence: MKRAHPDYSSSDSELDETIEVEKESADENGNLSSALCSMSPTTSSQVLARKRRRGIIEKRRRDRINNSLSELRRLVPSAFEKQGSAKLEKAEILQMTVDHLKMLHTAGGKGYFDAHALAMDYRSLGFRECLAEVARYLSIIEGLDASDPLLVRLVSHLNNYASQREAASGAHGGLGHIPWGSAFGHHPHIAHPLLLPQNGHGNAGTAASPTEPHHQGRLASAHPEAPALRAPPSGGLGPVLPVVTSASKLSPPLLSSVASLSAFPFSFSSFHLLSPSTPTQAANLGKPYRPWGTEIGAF

NKX2-3 [6] = target: T4, NKX2-3; assay: EMSA; supershift; HEY1 dose-dependently inhibits (Fig S1B); EMSA: 20 mM Tris pH 8.0, 10 mM KCl, 1 mM DTT, 20% glycerol, 12.5 ng poly dI/C, 6.25 pmol random ss oligo, BSA, 1-2 pmol probe, 4 C; conditions: protein: recombinant; tags: His, T7 (pET21A); blunt
HEY1 [7] = target: T7, HEY1; assay: EMSA; EMSA: 20 mM Tris pH 8.0, 10 mM KCl, 1 mM DTT, 20% glycerol, 12.5 ng poly dI/C, 6.25 pmol random ss oligo, BSA, 1-2 pmol probe, 4 C; conditions: protein: recombinant; tags: His, T7 (pET21A); chain copies: 2; blunt
NKX2-3 [8] = target: T4, NKX2-3; assay: as above; conditions: protein: recombinant; tags: His, T7 (pET21A); blunt
COUP-TFII [9] = target: T6, COUP-TFII; assay: as above; conditions: protein: recombinant; tags: His, T7 (pET21A); chain copies: 2; blunt
NKX2-3;COUP-TFII [10] = target: T5, NKX2-3;COUP-TFII; assay: EMSA; supershift with anti-NKX2-3; EMSA: 20 mM Tris pH 8.0, 10 mM KCl, 1 mM DTT, 20% glycerol, 12.5 ng poly dI/C, 6.25 pmol random ss oligo, BSA, 1-2 pmol probe, 4 C; conditions: protein: recombinant;recombinant, tags: His, T7 (pET21A);His, copies: 1;1, blunt
NKX2-3;COUP-TFII [11] = target: T5, NKX2-3;COUP-TFII; assay: EMSA; band stronger than on WT CE; supershift with anti-NKX2-3; EMSA: 20 mM Tris pH 8.0, 10 mM KCl, 1 mM DTT, 20% glycerol, 12.5 ng poly dI/C, 6.25 pmol random ss oligo, BSA, 1-2 pmol probe, 4 C; conditions: protein: recombinant;recombinant, tags: His, T7 (pET21A);His, copies: 1;1, blunt

B1: Etv2 NCCE (dsDNA)
DNA 1: CCTGCAACTTGACCCAGGCTGCGACCCCCAGC
DNA 2: GCTGGGGGTCGCAGCCTGGGTCAAGTTGCAGG
B1: binds (NKX2-5;COUP-TFII).

B2: Tbx5 NCCE (dsDNA)
DNA 1: CCGCTGACCCGACCCTTAATAAGGCA
DNA 2: TGCCTTATTAAGGGTCGGGTCAGCGG
B2: binds (NKX2-5;COUP-TFII).

B3: NKX2-3 (recombinant, His- and T7-tagged) (natural protein, mouse, UniProt P97334 1-362, looked up)
chain: MMLPSPVTSTPFSVKDILNLEQQRHFHGAHLQAELEQHFHSAPCMLATAEGTQFSDAGEEDEEEEGEKLSYLNSLAAAEGHGDSGLCPQSYVHTVLRDACSGPKEQEEEVVSERSQKSCQLKKSLEAAGDCKTSEDGERPKPRSRRKPRVLFSQAQVFELERRFKQQRYLSAPEREHLASSLKLTSTQVKIWFQNRRYKCKRQRQDKSLELGTHAPPPPPRRVAVPVLVRDGKPCVTPSAQTYGSPYGVGAGAYSYNSFPAYGYGNSAAAAAAAAAAAAAAAAYSGSYGCAYPTGGGGGGGGTASAATTAMQPACSATGGGSFVNVSNLGGFGSGGGAQPLHQGAAAGSACTQGTLQGIRAW
notes: Homeobox protein NKX2-3, mouse; cDNA PCR-amplified from mouse cDNA as EcoRI-HindIII fragment and cloned into pET21-A; also called intestinal homeodomain protein NKX2-3; source: E. coli BL21, purified
B3: binds (GST-tagged COUP-TFII); binds [1].

B4: St6gal1 CE WT (dsDNA)
DNA 1: GAGGCTGGTCAGAGAAGTGTGAAAAG
DNA 2: CTTTTCACACTTCTCTGACCAGCCTC
B4: binds (NKX2-3;COUP-TFII-GST); binds (COUP-TFII-GST); binds (NKX2-3 [2]).

B5: Madcam1 CE WT (dsDNA)
DNA 1: CCATGCACTTGACCCACCATGGTGACCCACCTCC
DNA 2: GGAGGTGGGTCACCATGGTGGGTCAAGTGCATGG
B5: binds (NKX2-3;COUP-TFII [3]); binds (COUP-TFII [4]); binds (HEY1 [5]). B5: binds (NKX2-3 [6]).

B6: Madcam1 CE_deltaE/N (m1) (dsDNA)
DNA 1: CCATGGTCTTGACCCACCATGGTGACCCACCTCC
DNA 2: GGAGGTGGGTCACCATGGTGGGTCAAGACCATGG
B6: no binding (HEY1 [7]); no binding (NKX2-3 [8]).

B7: Madcam1 CE_deltaN_deltaC_A (dsDNA)
DNA 1: CCATGGTCTTGAAAAAAAATGGTGACCCACCTCC
DNA 2: GGAGGTGGGTCACCATTTTTTTTCAAGACCATGG
B7: binds (COUP-TFII [9]); no binding (NKX2-3 [8]); binds (NKX2-3;COUP-TFII [10]).

B8: Madcam1 CE_deltaC_A (dsDNA)
DNA 1: CCATGCACTTGAAAAAAAATGGTGACCCACCTCC
DNA 2: GGAGGTGGGTCACCATTTTTTTTCAAGTGCATGG
B8: binds (NKX2-3;COUP-TFII [11]).
